For this assay, the target named is SBE FLAG9 (three 3xFLAG domains joined by rigid linkers) displayed on the yeast cell wall as a fusion to truncated FLO11 (S. cerevisiae) (UniProt P08640). Description: cell-based or functional assay.
Sequence of UniProt P08640 (P08640 other isoform, or with tags, fused parts or gaps limits assumed): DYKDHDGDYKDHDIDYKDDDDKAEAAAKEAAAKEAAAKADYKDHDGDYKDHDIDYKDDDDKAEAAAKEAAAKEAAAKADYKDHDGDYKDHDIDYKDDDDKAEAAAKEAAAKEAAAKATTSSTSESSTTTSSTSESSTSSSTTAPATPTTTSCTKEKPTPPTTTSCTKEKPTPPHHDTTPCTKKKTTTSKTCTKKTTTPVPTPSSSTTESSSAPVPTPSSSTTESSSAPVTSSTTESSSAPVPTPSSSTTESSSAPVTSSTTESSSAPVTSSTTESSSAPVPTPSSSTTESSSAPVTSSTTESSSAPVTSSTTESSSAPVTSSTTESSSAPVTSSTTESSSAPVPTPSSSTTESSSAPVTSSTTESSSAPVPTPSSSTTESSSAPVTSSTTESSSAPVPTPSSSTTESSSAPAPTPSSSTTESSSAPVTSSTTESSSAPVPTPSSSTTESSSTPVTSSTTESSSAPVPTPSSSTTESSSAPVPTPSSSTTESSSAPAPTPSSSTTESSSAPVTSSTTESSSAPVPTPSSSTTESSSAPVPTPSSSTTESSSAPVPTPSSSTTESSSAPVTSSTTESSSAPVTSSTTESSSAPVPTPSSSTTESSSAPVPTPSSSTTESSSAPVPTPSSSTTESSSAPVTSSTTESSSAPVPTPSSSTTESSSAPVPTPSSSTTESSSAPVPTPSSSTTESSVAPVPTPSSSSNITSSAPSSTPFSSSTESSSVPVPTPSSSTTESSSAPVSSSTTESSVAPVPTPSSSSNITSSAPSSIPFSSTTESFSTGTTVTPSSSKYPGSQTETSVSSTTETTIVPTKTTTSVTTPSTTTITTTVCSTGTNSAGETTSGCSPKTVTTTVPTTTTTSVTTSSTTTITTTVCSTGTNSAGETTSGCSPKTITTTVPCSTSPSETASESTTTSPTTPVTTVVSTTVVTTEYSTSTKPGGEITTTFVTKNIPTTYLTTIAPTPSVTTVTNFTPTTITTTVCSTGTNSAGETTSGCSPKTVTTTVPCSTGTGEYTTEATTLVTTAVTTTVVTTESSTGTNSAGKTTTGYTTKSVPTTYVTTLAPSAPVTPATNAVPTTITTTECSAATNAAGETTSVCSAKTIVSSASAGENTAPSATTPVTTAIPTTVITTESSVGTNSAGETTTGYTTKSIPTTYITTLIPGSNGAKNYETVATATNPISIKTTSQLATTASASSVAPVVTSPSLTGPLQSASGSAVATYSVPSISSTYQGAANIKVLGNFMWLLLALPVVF

In the case of “anti-FLAG M2 antibody (A2220 Sigma-Aldrich), covalently linked to agarose beads”, the beta-lactamase reporter (nitrocefin-BLA analysis), fold-change against the negative control without beads; PIC assay with sX406, sX216 and regulatory sX437 was found to be 2 fold; the beta-lactamase reporter, fold-change against the negative control; OR operation, Experiment A (BaF beads only) was 3 to 4 fold; the nitrocefin hydrolysis readout (image intensity), fold-increase against negative controls at 6 hrs; PIC assay with immobilization, strains sX384 and sX387, BaF beads is 6 to 10 fold.

These data come from patent US20210319279A1.
